According to patent US20250340667A1, “Cancer Treatment comprising an anti-MSLN/CD137 antibody and a chemotherapeutic” (Merck Patent GmbH, priority 2022, published 2025):
Where a chain is given by its changes, count along the chain named. Where “and” joins values, the source holds several entries; their conditions need not be identical. Equal entries are not always repeated. Where two headings read alike, the source gives them in different places.

B1: FS122m: mouse surrogate mAb2 of M9657 binding mouse MSLN and murine CD137, human IgG1 LALA; SEQ ID NOs 84 and 85 (antibody)
heavy: EVQLLESGGGLVQPGGSLRLSCAASGFTFSTYFMVWVRQAPGKGLEWVSMISPKSSNTYYADSVKGRFTISRDNSKNTLYLQMNSLRAEDTAVYYCARYHISPRFDYWGQGTLVTVSSASTKGPSVFPLAPSSKSTSGGTAALGCLVKDYFPEPVTVSWNSGALTSGVHTFPAVLQSSGLYSLSSVVTVPSSSLGTQTYICNVNHKPSNTKVDKKVEPKSCDKTHTCPPCPAPEAAGGPSVFLFPPKPKDTLMISRTPEVTCVVVDVSHEDPEVKFNWYVDGVEVHNAKTKPREEQYNSTYRVVSVLTVLHQDWLNGKEYKCKVSNKALPAPIEKTISKAKGQPREPQVYTLPPSRDEPYWSYVSLTCLVKGFYPSDIAVEWESNGQPENNYKTTPPVLDSDGSFFLYSKLTVMNYRWELGNVFSCSVMHEALHNHYTQKSLSLSPGK
light: EIVLTQSPGTLSLSPGERATLSCRASQSVSSSYLAWYQQKPGQAPRLLIYGASSRATGIPDRFSGSGSGTDFTLTISRLEPEDFAVYYCQQPFPFSFTFGQGTKVEIKRTVAAPSVFIFPPSDEQLKSGTASVVCLLNNFYPREAKVQWKVDNALQSGNSQESVTEQDSKDSTYSLSSTLTLSKADYEKHKVYACEVTHQGLSSPVTKSFNRGEC
modifications: FS122m (surrogate anti-mMSLN mCD137 Fcab G1-AA): Heavy chain AA (with LALA); Light chain AA
B2: M9657: tetravalent bispecific mAb2, Fab binds MSLN, CH3 Fcab binds CD137, human IgG1-LALA; heavy/light chain SEQ ID NOs 2 and 10 (antibody)
heavy: EVQLLESGGGLVQPGGSLRLSCAASGFTFTHTYMSWVRQAPGKGLEWVSAISPTYSTTNYADSVKGRFTISRDNNKNTLYLQMNSLRAEDTAVYYCARYNAYHAALDYWGQGTLVTVSSASTKGPSVFPLAPSSKSTSGGTAALGCLVKDYFPEPVTVSWNSGALTSGVHTFPAVLQSSGLYSLSSVVTVPSSSLGTQTYICNVNHKPSNTKVDKKVEPKSCDKTHTCPPCPAPEAAGGPSVFLFPPKPKDTLMISRTPEVTCVVVDVSHEDPEVKFNWYVDGVEVHNAKTKPREEQYNSTYRVVSVLTVLHQDWLNGKEYKCKVSNKALPAPIEKTISKAKGQPREPQVYTLPPSRDELPYIIPPYNQVSLTCLVKGFYPSDIAVEWESNGQPENNYKTTPPVLDSDGSFFLYSKLTVGADRWLEGNVFSCSVMHEALHNHYTQKSLSLSPG
light: B1 light with P92T, F93V, F95Y, S96P, F97Y
modifications: Heavy chain AA (with LALA); Light chain AA

Columns and labels:
[1] = test system: CT26 colon cancer cells; format: in vivo; settings: for tumor growth inhibition (TGI): relative to the isotype control; for median survival: isotype control 17 days; for complete tumor regression: number of mice with complete regression per group
Protocol: (§1) The efficacy of the combination of an antibody molecule that binds MSLN and CD137 and a chemotherapeutic in enhancing an anti-cancer immune response compared to monotherapy with either the antibody molecule that binds MSLN and CD137 or the chemotherapeutic was assessed by studying the average tumour volume over time and prolonged survival in mouse tumour models. These mouse tumor models are described in more detail below.
(§2) CT26 cells were obtained from ATCC and cultured in RPMI media containing 2 mM L-glutamine, 10 mM HEPES, 1 mM sodium pyruvate, 4500 mg/L glucose, 1500 mg/L sodium bicarbonate, and 10% fetal bovine serum (FBS). JC cells were obtained from ATCC and were maintained in vitro as a monolayer culture at WuXi in RPMI-1640 supplemented with 10% heat-inactivated FBS. These tumor cell lines were individually maintained in vitro as monolayer cultures and grown at 37° C. in an atmosphere of 5% CO2. The cells were routinely sub-cultured twice weekly by TrypLE treatment. The cells growing in an exponential growth phase were harvested and counted for tumor inoculation. Wild-type BALB/c female mice were purchased from Charles River Laboratories, or from Lingchang Biological Technology Co. LTD. All mice were 8-12 weeks old at the start of studies and were housed and maintained as described below, under conditions that conform to The Guide for the Care and Use of Laboratory Animals, 8th Edition. All animal experiments were performed in accordance with EMD Serono Research Institutional (protocol 17-008, 20-005) and Wuxi AppTec Animal Care and Use Committee (IACUC) guidelines.
(§3) CT26 and JC tumor models were used to investigate the antitumor effect of a combination of an antibody molecule that binds MSLN and CD137 and a chemotherapeutic compared to monotherapy with the antibody molecule that binds MSLN and CD137 or the chemotherapeutic. Mice were treated with the anti-mMSLN-mCD137-huIgG1-LALA antibody molecule FS122m in combination with either of the two chemotherapeutics cisplatin or gemcitabine. For the CT26 model, female BALB/c mice were inoculated via subcutaneous (sc) injection in the right flank with 0.3×10^6 CT26 cells in 0.1 mL of PBS. Mice were randomized to treatment groups (n=10 mice/group) when the average tumor volume reached approximately 50-100 mm^3. For the JC model, female BALB/c mice were inoculated via sc injection at the right upper flank with JC tumor cells (5×10^6) in 0.1 mL of PBS. Treatments were started on day 14 after tumor inoculation when the average tumor size reached approximately 80 mm^3. FS122m and anti-HEL hIgG1 LALA isotype control were given as 5 mg/kg on the first, third and fifth day of treatment (Days 0, 2, and 4) via intraperitoneal (ip) injection. Cisplatin was given on Day 0 at 10 mg/kg via ip injection, and gemcitabine was given on Day 0 at 120 mg/kg via ip injection.
(§4) Mortality checks were performed once daily. Animals were checked daily for any effects of tumor growth and treatments on normal behavior such as mobility, food and water consumption (by looking only), eye/hair matting and any other abnormal effect as stated in the protocol. Body weights were recorded twice weekly and any mouse with a 20% loss of initial body weight loss was humanely sacrificed. Mice were humanely euthanized if their subcutaneous tumors reached a volume of 2500 mm^3.
(§5) Body weight was measured and recorded twice weekly until an endpoint was reached. Tumor sizes were measured twice per week in three dimensions using a caliper, and the volume was expressed in mm^3 using the formula: width×length×height×0.5236.
(§6) Differences in tumor growth between treatment groups were determined using two-way analysis of variance (ANOVA) and Tukey's Multiple Comparisons Test. The significance of survival was determined using Log-rank (Mantel-Cox) test. […]

[2] = test system: JC breast cancer cells; format: in vivo; settings: for tumor growth inhibition (TGI): FS122m 5 mg/kg ip Days 0, 2, 4; for complete tumor regression: number of mice with complete regression per group
Protocol: as §1, §2, §3, §4, §5, §6

[3] = target: T1, CD137 (Homo sapiens, UniProt Q07011); settings: monotherapy clinical studies, suspended; cited from earlier work
T1 construct: Clinical studies of both utomilumab and urelumab monotherapy were however suspended; host or cells: patients (endogenous CD137)
T1 sequence (Q07011 24-255): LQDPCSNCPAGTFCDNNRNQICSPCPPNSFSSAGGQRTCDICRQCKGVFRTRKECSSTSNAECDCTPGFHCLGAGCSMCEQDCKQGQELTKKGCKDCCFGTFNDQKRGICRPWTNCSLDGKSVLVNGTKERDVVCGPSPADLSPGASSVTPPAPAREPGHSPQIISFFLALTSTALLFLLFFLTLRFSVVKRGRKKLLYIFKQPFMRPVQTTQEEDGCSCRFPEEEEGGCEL

[4] = target: T2, mouse MSLN (Mus musculus, UniProt Q61468); assay: Binding / cross-reactivity to mouse MSLN
T2 sequence (Q61468 36-600): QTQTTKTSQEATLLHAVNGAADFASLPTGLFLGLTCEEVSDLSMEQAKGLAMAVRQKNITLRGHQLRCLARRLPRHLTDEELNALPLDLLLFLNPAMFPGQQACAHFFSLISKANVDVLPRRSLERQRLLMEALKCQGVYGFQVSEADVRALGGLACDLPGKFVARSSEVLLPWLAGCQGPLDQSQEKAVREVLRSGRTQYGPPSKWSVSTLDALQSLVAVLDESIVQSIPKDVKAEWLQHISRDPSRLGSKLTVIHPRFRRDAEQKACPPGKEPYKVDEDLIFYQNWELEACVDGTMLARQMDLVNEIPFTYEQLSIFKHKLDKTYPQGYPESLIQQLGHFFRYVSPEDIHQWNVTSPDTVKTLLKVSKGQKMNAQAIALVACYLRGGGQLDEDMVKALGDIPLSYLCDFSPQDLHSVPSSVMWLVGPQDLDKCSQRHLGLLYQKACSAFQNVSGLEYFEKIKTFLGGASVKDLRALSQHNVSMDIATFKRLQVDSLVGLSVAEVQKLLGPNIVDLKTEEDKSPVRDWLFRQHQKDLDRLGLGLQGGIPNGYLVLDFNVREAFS

[5] = target: mouse CD137 (Mus musculus, UniProt P20334); assay: Binding / cross-reactivity to mouse CD137
mouse CD137, sequence (P20334 24-256): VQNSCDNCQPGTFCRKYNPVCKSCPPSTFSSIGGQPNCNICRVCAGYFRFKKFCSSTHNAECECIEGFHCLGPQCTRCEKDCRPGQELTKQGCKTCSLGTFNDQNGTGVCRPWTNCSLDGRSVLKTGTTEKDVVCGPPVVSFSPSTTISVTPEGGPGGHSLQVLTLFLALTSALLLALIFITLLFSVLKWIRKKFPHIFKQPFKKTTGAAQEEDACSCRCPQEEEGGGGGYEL

[6] = cisplatin combination study, Day 17, FS122m 5 mg/kg ip Days 0, 2, 4, cisplatin 10 mg/kg ip Day 0
[7] = cisplatin combination study, FS122m 5 mg/kg ip Days 0, 2, 4, cisplatin 10 mg/kg ip Day 0
[8] = cisplatin combination study, Day 22 post treatment initiation, compared with the isotype control, cisplatin 10 mg/kg ip Day 0
[9] = cisplatin combination study, isotype control 22 days
[10] = gemcitabine combination study, monotherapies Day 14, combination compared on Day 18, FS122m 5 mg/kg ip Days 0, 2, 4, gemcitabine 120 mg/kg ip Day 0
[11] = gemcitabine combination study, Day 25, relative to the isotype control, gemcitabine 120 mg/kg ip Day 0
[12] = gemcitabine combination study, isotype control 27 days

| Molecule | tumor growth inhibition (TGI) [1, 6] [%] | median survival [1, 7] [days] | complete tumor regression ([1]; cisplatin combination study) | complete tumor regression ([1]; gemcitabine combination study) | tumor growth inhibition (TGI) [2, 8] [%] | median survival [2, 9] [days] | complete tumor regression ([2]; cisplatin combination study) | complete tumor regression ([2]; gemcitabine combination study) | median survival ([1]; gemcitabine combination study) [days] | tumor growth inhibition (TGI) [1, 10] [%] | tumor growth inhibition (TGI) [2, 11] [%] | median survival [2, 12] [days] | clinical toxicity [3] | binding affinity for mouse MSLN ([4]; compared with binding affinity of M9657 for human MSLN) | binding affinity for mouse CD137 ([5]; compared with binding affinity of M9657 for human CD137) | cross-reactivity with mouse MSLN [4] | cross-reactivity with mouse CD137 [5] |
| --- | --- | --- | --- | --- | --- | --- | --- | --- | --- | --- | --- | --- | --- | --- | --- | --- | --- |
| N.N.[Cl][Pt][Cl] [cisplatin] | 77.8 | 36.5 | no complete tumor regression in 10 mice | no complete tumor regression in 9 mice | 44.9 | 29 | no complete tumor regression in 10 mice | no complete tumor regression in 10 mice |  |  |  |  |  |  |  |  |  |
| Nc1ccn([C@@H]2O[C@H](CO)[C@@H](O)C2(F)F)c(=O)n1 [gemcitabine] |  |  |  | no complete tumor regression in any of 9 mice |  |  |  | no complete tumor regression in 10 mice | 22 | 58.2 | 47.8 | 36 |  |  |  |  |  |
| urelumab: 1st generation CD137 agonist antibody |  |  |  |  |  |  |  |  |  |  |  |  | hepatotoxicity |  |  |  |  |
| B1 | 61.3 | 24 | 2 of 10 and 2 out of 10 | 3 of 9 | 60.1 | 33 | 2 of 10 | 1 of 10 and 1 out of 10 | 35 | 61.4 | 45.8 | 34 |  | similar | similar |  |  |
| B2 |  |  |  |  |  |  |  |  |  |  |  |  |  |  |  | lack of cross-reactivity | lack of cross-reactivity |
